Test results published in the DeepSol protein solubility set.

Test: soluble on expression in E. coli; label from the status in PepcDB or PDB records

Row | Sequence | soluble on expression in E. coli
1 | MHHHHHHMELSLASITVPLESIKPSNILPVTVYDQHGFRILFHFARDPLPGRSDVLVVVVSMLSTAPQPIRNIVFQSAVPKVMKVKLQPPSGTELPAFNPIVHPSAITQVLLLANPQKEKVRLRYKLTFTMGDQTYNEMGDVDQFPPPETWGSL | soluble
2 | MHHHHHHMKNVIFEDEEKSKMLARLLKSSHPEDLRAANKLIKEMVQEDQKRMEKISKRVNAIEEVNNNVKLLTEMVMSHSQGGAAAGSSEDLMKELYQRCERMRPTLFRLASDTEDNDEALAEILQANDNLTQVINLYKQLVRGEEVNGDATAGSIPG | soluble
3 | MHHHHHHMNSRILSTGSYLPSHIRTNADLEKMVDTSDEWIVTRSGIRERRIAAEDETVATMGFEAAKNAIEAAQINPQDIELIIVATTSHSHAYPSAACQVQGLLNIDDAISFDLAAACTGFVYALSVADQFIRAGKVKKALVIGSDLNSRKLDETDRSTVVLFGDGAGAVILEASEQEGIISTHLHASADKNNALVLAQPERGIEKSGYIEMQGNETFKLAVRELSNVVEETLLANNLDKKDLDWLVPHQANLRIITATAKKLEMDMSQVVVTLDKYANNSAATVPVALDEAIRDGRIQRGQLLLLEAFGGGWTWGSALVRF | soluble
4 | MHHHHHHSSGVDLGTENLYFQSMASESETLNPSARIMTFYPTMEEFRNFSRYIAYIESQGAHRAGLAKVVPPKEWKPRASYDDIDDLVIPAPIQQLVTGQSGLFTQYNIQKKAMTVREFRKIANSDKYCTPRYSEFEELERKYWKNLTFNPPIYGADVNGTLYEKHVDEWNIGRLRTILDLVEKESGITIEGVNTPYLYFGMWKTSFAWHTEDMDLYSINYLHFGEPKSWYSVPPEHGKRLERLAKGFFPGSAQSCEAFLRHKMTLISPLMLKKYGIPFDKVTQEAGEFMITFPYGYHAGFNHGFNCAESTNFATRRWIEYGKQAVLCSCRKDMVKISMDVFVRKFQPERYKLWKAGKDNTVIDHTLPTPEAAEFLKESEL | soluble
5 | MHHHHHHSSGVDLGTENLYFQSMGQCSVLLFPGQGSQVVGMGRGLLNYPRVRELYAAARRVLGYDLLELSLHGPQETLDRTVHCQPAIFVASLAAVEKLHHLQPSVIENCVAAAGFSVGEFAALVFAGAMEFAEGLYAVKIRAEAMQEASEAVPSGMLSVLGQPQSKFNFACLEAREHCKSLGIENPVCEVSNYLFPDCRVISGHQEALRFLQKNSSKFHFRRTRMLPVSGAFHTRLMEPAVEPLTQALKAVDIKKPLVSVYSNVHGHRYRHPGHIHKLLAQQLVSPVKWEQTMHAIYERKKGRGFPQTFEVGPGRQLGAILKSCNMQAWKSYSAVDVL | soluble
6 | MHHHHHHSSGVDLGTENLYFQSMPRARPGGNRVTVVLGAQWGDEGKGKVVDLLAQDADIVCRCQGGNNAGHTVVVDSVEYDFHLLPSGIINPNVTAFIGNGVVIHLPGLFEEAEKNVQKGKGLEGWEKRLIISDRAHIVFDFHQAADGIQEQQRQEQAGKNLGTTKKGIGPVYSSKAARSGLRMCDLVSDFDGFSERFKVLANQYKSIYPTLEIDIEGELQKLKGYMEKIKPMVRDGVYFLYEALHGPPKKILVEGANAALLDIDFGTYPFVTSSNCTVGGVCTGLGMPPQNVGEVYGVVKAYTTRVGIGAFPTEQDNEIGELLQTRGREFGVTTGRKRRCGWLDLVLLKYAHMINGFTALALTKLDILDMFTEIKVGVAYKLDGEIIPHIPANQEVLNKVEVQYKTLPGWNTDISNARAFKELPVNAQNYVRFIEDELQIPVKWIGVGKSRESMIQLF | soluble
7 | MHIDNIENLSDREFDYIVVGGGSAGAAVAARLSEDPAVSVALVEAGPDDRGVPEVLQLDRWMELLESGYDWDYPIEPQENGNSFMRHARAKVMGGCSSHNSCIAFWAPREDLDEWEAKYGATGWNAEAAWPLYKRLETNEDAGPDAPHHGDSGPVHLMNVPPKDPTGVALLDACEQAGIPRAKFNTGTTVVNGANFFQINRRADGTRSSSSVSYIHPIVEQENFTLLTGLRARQLVFDADRRCTGVDIVDSAFGHTHRLTARNEVVLSTGAIDTPKLLMLSGIGPAAHLAEHGIEVLVDSPGVGEHLQDHPEGVVQFEAKQPMVAESTQWWEIGIFTPTEDGLDRPDLMMHYGSVPFDMNTLRHGYPTTENGFSLTPNVTHARSRGTVRLRSRDFRDKPMVDPRYFTDPEGHDMRVMVAGIRKAREIAAQPAMAEWTGRELSPGVEAQTDEELQDYIRKTHNTAYHPVGTVRMGAVEDEMSPLDPELRVKGVTGLRVADASVMPEHVTVNPNITVMMIGERCADLIRSARAGETTTADAELSAALA | soluble
8 | MHIKPIIQGVVARSAHPYGCEQAVLQQIQYVKQANPIKSGPKRVLILGASSGFGLAARIALTFGGAQADTIGVSFERAPSETQTGSAGYYNNLFFKQHAEQAGRIAVNLEGDVFSVDMREQVIEAIETYFEGEVDLIIYSIASGMRRKPRSEKADPEFWRSAIKPIGEAVSGATLLLENDTWIETTLQPASEEEIEGTLRVMGGDDWENWIDTLINAESLAEGCKTIAFSYMGPDVTHPIYLDGTLGRAKIDLHQTSHALNLKLANFDGGAYAVVCKALVTKASVFIPGLSPYLLALYQVMKNKGTHEGCIEQMQRLFSDKLYGHSRIPLDSERLIRMDDWEMNPDTQVQVRERLQQMNASNFQQLGDYAGFKREFMQLNGFEFDQIDYSQSV | not soluble
9 | MHIPENLYVVGTMNIADRSLALVDLALRRRFAFVGLEPRLGQVWRDWVVKECAVDPGLVADIERRIAELNDQIAADARLGKQFRIGHSYVTPAHRLEAGDTKKWFLQVVETEIGPLLDEYWFDAPDEAQKAIARLTQGLEHHHHHH | not soluble
10 | MHIQIDGIPIEILRKPIKNLNLRIYPPDGLVKVSVPLKYSEQLIKQQLQEKSKWIRAQCEQIRARSFYREPSLQTGATIPFKGKSYLLIVEEHYGPSQILIKNELIYCYTKPDLTPQQKQNILDRWYRKEMNLVIPRLIQQWEAIMKVKINQWGIKKMKTRWGSCNPRAQRIWLNLNLIKKPLECLEYVLVHEMVHILEASHNKRFYALMTQFMPKWQEYQRILEGTPNASTFARLEHHHHHH | not soluble
11 | MHITNRSHLADRYGKRTSAEFLLHERPILSFPISLAAIPKEARYLSWELIDYDTIPLIGFPFIHWLAANVPVTNEIPEDFSRTALKPTIQGKNSLASPLGKQMIPALATETLPELTERYLGLSPRSGVHTYTLYVYTTKNPLNLKEGFFANELHQALNDQLLAKAKFEFLY | not soluble
12 | MHKRATSPLSAARTRRKPHGWKKREDDGVGGRFLSIGECMVELSQAGNGLLRKGFAGDTFNAAWYARACLPQDWSVDYFTALGDDPLSEDMLAFIAEAGIGTEKIRRIKGGTPGLYLINLKDGERTFSYWRNAAAARQLAADADHLRKTVESADVVYFSGITLAILASAHDVDTFLAELRRARAAGKLVVFDPNIRPRLWADRDVMLETISNGARAATLVMPSFDDEASHFGDVSVEATIARYRSLGVENIVVKDGAKGATLDFGGSRSHAPAEKAVDVVDTTSAGDSFNGAFLARYVTGSSPEEAATFAARAAATVIGHHGALISPELLPLVG | not soluble
13 | MHKSNNKIRQRIIIKLSGAGLTKENSQPFSNDFFETIINQLKVLKESYQVGIVIGGGNIIRGNNCQEFNIAEYHGHQLGIIATVVNGYFLKAKLDAHNLKSALLSAISCPSLAVQILSQQTIDKAFEENDFVIFSGGTGNPYFSTDTALALRAVQTKAVAILIGKNGVDGVYTADPKKDKNATFLPTLNYDHAIKNDLKIMDITAFTMCKENNLKIIIFNINAENALLDALNKKGRFTIIENNLEHHHHHH | soluble
14 | MHNFIYITAPSLEEAERIAKRLLEKKLAACVNIFPIKSFFWWEGKIEAATEFAMIVKTRSEKFAEVRDEVKAMHSYTTPCICAIPIERGLKEFLDWIDETVE | soluble
15 | MHNIYFYKDKNGNEPVFDYMRELTSKKGKDSRIKLNKINDYIELLSQHGTRAGEPYIKHLDAEIWELRPLRDRILFVAWMDGSFVLLHHFMKRTQKTPKREIEQAKRELADLKERGLDNEK | not soluble
16 | MHNQAPIQRRKSTRIYVGNVPIGDGAPIAVQSMTNTRTTDVEATVNQIKALERVGADIVRVSVPTMDAAEAFKLIKQRVNVPLVADIHFDYRIALKVAEYGVDCLRINPGNIGNEERIRMVVDCARDKNIPIRIGVNAGSLEKDLQEKYGEPTPQALLESAMRHVDHLDRLNFDQFKVSVKASDVFLAVESYRLLAKQIDQPLHLGITEAGGARSGAVKSAIGLGLLLSEGIGDTLRVSLAADPVEEIKVGFDILKSLRIRSRGINFIACPTCSRQEFDVIGTVNALEQRLEDIITPMDVSIIGCVVNGPGEALVSTLGVTGGNKKSGLYEDGVRKDRLDNNDMIDQLEARIRAKASQLDEARRIDVQQVGKIITLEHHHHHH | not soluble
17 | MHPLLRRLDLNLLLVFDALYRHRNVGTAASELAISASAFSHALGRLRQGLDDELFLRQGNRMQPTQRAEHLAAAVAAALRALGEGLEEWRPFVPGQSQRTFVFAATDYTAFALLPPLMNRLQHSAPGVRLRLVNAERKLSVEALASGRIDFALGYDEEHERLPEGIQAHDWFADRYVVVARRDHPRLAGAPTLEGYLAERHAVVTPWNEDSGVIDRLLARSGLRREVAVQLPTVLAALFLAGSTDFLLTAPRHAARALAEAAGLALYPAPFDIPPYVLRLYSHVQHVGRDAHAWMIGQLKGLDISRTG | soluble
18 | MHPTGPQLGPDVLFRESKMKVTLTFNEQRRAAYRQQGLWGDASLADYWQQTARAMPDKIAVVDNHGASYTYSALDHAASCLANWMLAKGIESGDRIAFQLPGWCEFTVIYLACLKIGAVSVPLLPSWREAELVWVLNKCQAKMFFAPTLFKQTRPVDLILPLQNQLPQLQQIVGVDKLAPATSSLSLSQIIADNIPLTTAITTHGDELAAVLFTSGTEGLPKGVMLTHNNILASERAYCARLNLTWLDVFMMPAPLGHATGFLHGVTAPFLIGARSVLLDIFTPDACLALLEQQRCTCMLGATPFVYDLLNLLEKQPADLSALRFFLCGGTTIPKKVARECQQRSIKLLSVYGSTESSPHAVVNLDNSLSRFMHTDGYAAAGVEIKVVDDARKTLPPGCEGEEASRGPNVFMGYFDEPELTARALDEEGWYYSGDLCRMDEAGYIKITGRKKDIIVRGGENISSREVEDILLQHPKIHDACVVAMPDERLGERSCAYVVLKAPHHSLSLEEMAAFFSRKRVAKYKYPEHIVVIEKLPRTASDKIQKFLLRKDIIRRLTQDVCEEIE | not soluble
19 | MHPVILFDGDCLFCHASAHWIAARDRQAVFRFAAQQSIVGQALLAKQEMSAEDSVVLIENGCCYVKSEAVLRIGRRLAWPWNWLAAAGFLIPRLLRDHMYDAIANRRHRLVPKRDHCQLPSPELRARFLDELPQ | not soluble
20 | MHRGITVQTSDLDDGVTGVVGKVYIEASPKHVWAAITDYNNHKSFVPKLIDSGLISDNGREQVMFERGKTGIFLFRKTVYIKLSLQGEYPKRLDFHQIEGDFKVYEGDWLIERASDGKGSILTFRAKIKPDFFAPAMFVRKVQQNDLPMVLAAMKKRAESAEGSLEHHHHHH | not soluble
21 | MHRRGVGAGAIAKKKLAEAKYKERGTVLAEDQLAQMSKQLDMFKTNLEEFASKHKQEIRKNPEFRVQFQDMCATIGVDPLASGKGFWSEMLGVGDFYYELGVQIIEVCLALKHRNGGLITLEELHQQVLKGRGKFAQDVSQDDLIRAIKKLKALGTGFGIIPVGGTYLIQSVPAELNMDHTVVLQLAEKNGYVTVSEIKASLKWETERARQVLEHLLKEGLAWLDLQAPGEAHYWLPALFTDLYSQEITAEEAREALP | soluble
